The values below come from CN116836274A (DONGGUAN PENGZHI BIOTECHNOLOGY CO LTD, dated 2023).

Test [1] deals with 血清淀粉样蛋白A (Serum amyloid A, SAA), 购自Yashraj biotechnology limited, 货号FRSAA-61 (UniProt P0DJI8). Description: biosensor with AMC sensors, antibody captured at 10 ug/ml, SAA in a dilution series in PBST.
The target of test [2] is T1, 血清淀粉样蛋白A (Serum amyloid A, SAA), 购自Yashraj biotechnology limited, 货号FRSAA-61 (UniProt P0DJI8 19-122, limits assumed).
T1 construct: Bought antigen
T1 sequence (looked up): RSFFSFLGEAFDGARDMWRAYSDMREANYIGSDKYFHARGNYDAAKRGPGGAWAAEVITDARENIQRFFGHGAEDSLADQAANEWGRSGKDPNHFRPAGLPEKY
Described as above.

For 对照 (antibody), in test [1], the Kd (commonly the concentration at which binding is half-saturated) was 9.01 nM; the koff (as a rule, the rate constant with which the complex falls apart) is 0.000219 s⁻¹; the on-rate (kon) (usually the second-order rate constant of association) stood at 24300 M⁻¹ s⁻¹.

B1: Anti-SAA-11A4mut1 (antibody, mouse IgG1, kappa, V domains shown)
VH: QVQLQQSGAELVRPGVSVKISCKGSGYTFTDYAMHWVKQSHAKSLEWIGVINTYYGDASYNQKFKGKATMTEDKSSSTVYMELARLTSEDSAIYYCARGSSIMITSWFAYWGQGTLVTVSA
VL: DIQMTQSPASLSASVGETVTITCRASENIYSYLAWYQQKQGKSPQLLVYNAKTLAEGVPSRFSGSGSGTQFSLKINSLQPEDFGSYYCQHHYGTPLTFGTGTKLELKR
In test [2], B1 had a dissociation constant (Kd) of 0.0322 nM, an off-rate constant (koff) of 1.12e-06 s⁻¹ and an association rate constant (kon) of 34800 M⁻¹ s⁻¹.

B2: Anti-SAA-11A4mut3 (antibody, V domains shown)
VH: QVQLQQSGAELVRPGVSVKISCKGSGYTFTDYAMHWVKQSHAKSLEWIGVINTYYGDASYNQKFKGKATMTEDKSSSTVYMELARLTSEDSAIYYCARGSSIMITSWFAYWGQGTLVTVSA
VL: DIQMTQSPASLSASVGETVTITCRASENIYSYLAWYQQKQGKSPQLLVYNAKTLAEGVPSRFSGSGSGTQFSLKINSLQPEDFGSYYCQHHYGTPITFGTGTKLELKR
For the molecule B2, in test [2], the dissociation constant (Kd) came to 0.0386 nM, the koff turned out to be 1.3e-06 s⁻¹ and the on-rate constant (kon) was found to be 33700 M⁻¹ s⁻¹.

B3: Anti-SAA-11A4mut2 (antibody, mouse IgG1, kappa, V domains shown)
VH: QVQLQQSGAELVRPGVSVKISCKGSGYTFTDYAMHWVKQSHAKSLEWIGVINTYYGDASYNQKFKGKATMTEDKSSSTVYMELARLTSEDSAIYYCARGSSLMITSWFAYWGQGTLVTVSA
VL: DIQMTQSPASLSASVGETVTITCRASENIYSYLAWYQQKQGKSPQLLVYNAKTLAEGVPSRFSGSGSGTQFSLKINSLQPEDFGSYYCQHHYGTPLTFGTGTKLELKR
B3: in test [2], the Kd is 0.827 nM, the dissociation rate constant (koff) is 3.05e-05 s⁻¹ and the kon is 36900 M⁻¹ s⁻¹.
